The text below walks through data of patent US12416034B2, “Recombinant production of steviol glycosides” (EVOLVA SA, priority 2011, dated 2025).

The nature of series [1]: Stability of EUGT11: pre-incubation before RebA to RebD reaction. The class given is physicochemical. Here is the method:
Reactions were conducted to explore the stability of EUGT11 under various RebA to RebD reaction conditions. Omitting the substrate from the reaction mixture, EUGT11 was pre-incubated for various periods of time before substrate was added. Following a pre-incubation of the enzyme in 100 mM Tris-HCl buffer, substrate (100 μM RebA) and other reaction components (300 μM UDP-glucose, and 10 U/mL Alkaline Phosphatase (Fermentas/Thermo Fisher, Waltham, MA)) were added (0, 1, 4 or 24 hours after the incubation was started). The reaction was then allowed to proceed for 20 h, after which the reactions were stopped and RebD product-formation measured. Experiments were repeated at different temperatures: 30° C., 32.7° C., 35.8° C. and 37° C.

Series [2] can be described thus: In vitro transcribed and translated UGTs incubated with 19-SMG, LC-MS. The note with it: average LC-MS peak height, not quantitative. The class given is biochemical. Here is the method:
(§1) EUGT11 was produced by in vitro transcription and translation, and incubated with various substrates in the RebD pathway. Similar experiments were carried out using in vitro transcribed and translated UGT91D2e. […] Compounds 1-3 were identified solely by mass and expected retention time. The numbers shown in FIG. 3 are the average peak height of the indicated steviol glycoside obtained from a LC-MS chromatogram, and, although not quantitative, can be used to compare the activity of the two enzymes. […] Both enzymes were able to convert steviol 19-O-monoglucoside (SMG) to compound 1, with EUGT11 being about ten times more efficient than UGT91D2e at converting 19-SMG to compound 1.

Series [3] is described as follows: In vitro transcribed and translated UGTs incubated with rubusoside, LC-MS. The class given is biochemical. Here is the method:
as §1
The left panel of FIG. 5 contains LC-MS chromatograms of the conversion of rubusoside to stevioside. The right panel of FIG. 5 contains chromatograms of the conversion of rubusoside to stevioside, to compound 2, and to compound 3 (RebE). Conversion of rubusoside to compound 3 requires two consecutive 1, 2-O-glycosylations at the 19- and 13-positions of steviol.

Series [4] in a line: Enzyme kinetics with RebA as substrate. The series is classed as biochemical. The settings on record: Reb A. Here is the method:
A series of experiments were performed to determine kinetic parameters of EUGT11 and 91D2e-b. For both enzymes, 100 μM RebA, 300 μM UDP-glucose, and 10 U/mL Alkaline Phosphatase (Fermentas/Thermo Fisher, Waltham, MA) were used in the reactions. For EUGT11, the reactions were performed at 37° C. using 100 mM Tris-HCl, pH 7, and 2% enzyme. For 91D2e-b, the reactions were performed at 30° C. using 20 mM Hepes-NaOH, pH 7.6, 20% (by volume) enzyme. The initial velocities (V0) were calculated in the linear range of a product versus time plot.
To first investigate the linearity intervals, initial time-courses were done for each enzyme. EUGT11 was assayed at 37° C. for 48 h at initial concentrations of 100 μM RebA and 300 μM UDP-glucose. UGT91D2e-b was assayed at 37° C. for 24 h at initial concentrations of 200 μM RebA and 600 μM UDP-glucose. Based on these range-finding studies, it was determined that the initial 10 minutes in the case of EUGT11, and the initial 20 minutes in UGT91D2e-b would be in the linear range with respect to product formation, and therefore initial velocities of each reaction were calculated in those intervals. In the case of EUGT11, RebA concentrations assayed were 30 μM, 50 μM, 100 μM, 200 μM, 300 μM and 500 μM. Concentration of UDP-glucose was always three times the concentration of RebA and incubation was performed at 37° C. By plotting the calculated V0 as a function of the substrate concentrations, Michaelis-Menten curves were generated. By plotting the reciprocal of V0 and the reciprocal of [S], a Lineweaver-Burk graphic was obtained, with y=339.85x+1.8644; R^2=0.9759.
Vmax and KM parameters were determined from the curve-fit Lineweaver-Burk data, calculated from the x- and y intercepts (x=0, y=1/Vmax) and (y=0, x=−1/KM). Additionally, the same parameters also were calculated by a non-linear least squares regression, using the SOLVER function in Excel. The results obtained with both methods for EUGT11 and RebA are presented in Table 12, along with all the kinetic parameters of this example. Kcat is calculated based on Vmax divided by the approximate amount of protein in the assay.
In the case of UGT91D2e-b, RebA concentrations assayed were 50 μM, 100 μM, 200 μM, 300 μM, 400 μM and 500 μM. Concentration of UDP-glucose was always three times the concentration of RebA and incubation was performed at 30° C., in the reaction conditions described above for UGT91D2e-b. Additionally, kinetic parameters of UGT91D2e-b towards UDP-glucose were determined. UGT91D2e-b was incubated with increasing amounts of UDP-glucose (30 μM, 50 μM, 100 μM, and 200 μM), maintaining an excess of RebA (1500 μM). incubation was performed at 30° C., in optimal conditions for UGT91D2e-b.

B1: EUGT11: UDP glycosyl transferase from Oryza sativa (GenBank AC133334), SEQ ID NO:152 (protein, listed as Oryza sativa)
chain: MDSGYSSSYAAAAGMHVVICPWLAFGHLLPCLDLAQRLASRGHRVSFVSTPRNISRLPPVRPALAPLVAFVALPLPRVEGLPDGAESTNDVPHDRPDMVELHRRAFDGLAAPFSEFLGTACADWVIVDVFHHWAAAAALEHKVPCAMMLLGSAHMIASIADRRLERAETESPAAAGQGRPAAAPTFEVARMKLIRTKGSSGMSLAERFSLTLSRSSLVVGRSCVEFEPETVPLLSTLRGKPITFLGLMPPLHEGRREDGEDATVRWLDAQPAKSVVYVALGSEVPLGVEKVHELALGLELAGTRFLWALRKPTGVSDADLLPAGFEERTRGRGVVATRWVPQMSILAHAAVGAFLTHCGWNSTIEGLMFGHPLIMLPIFGDQGPNARLIEAKNAGLQVARNDGDGSFDREGVAAAIRAVAVEEESSKVFQAKAKKLQEIVADMACHERYIDGFIQQLRSYKD
A word on the Km: it is the concentration of substrate that gives half-maximal velocity. Usually Vmax stands for the top rate of the reaction or transport when substrate is in excess. Take B1: the activity after pre-incubation result in series [1] (30° C., 4 hours) was “not significantly reduced”. Moreover, the “activity remaining after pre-incubation” value in series [1] (30° C., 24 hours) is recorded as “approximately one-third”; in series [1] (37° C., 1 hour) it was “approximately half”; in series [1] (37° C., 4 hours) it was “almost no activity”. In addition, the “efficiency at converting 19-SMG to compound 1 compared with UGT91D2e” value in series [2] is “about ten”. The “amount of compound 3 (RebE) produced from rubusoside” value in series [3] was “significant amount”. Further, the Kcat worked out at 0.14 s⁻¹ in series [4] (Lineweaver-Burk plot) and 0.135 s⁻¹ in series [4] (Nonlinear Least Square Fit). The Km in series [4] (Lineweaver-Burk plot) was 182 µM; in series [4] (Nonlinear Least Square Fit), 162 µM. The Vmax in series [4] (Lineweaver-Burk plot) worked out at 0.54 µM/min; in series [4] (Nonlinear Least Square Fit), 0.52 µM/min.
